Laboratory results: patent US20230348614A1 (VISTERRA, published 2023)

How the values were obtained:
[1] = biological target: T1, G241A (Homo sapiens, UniProt P18827); experiment: alanine scan: flow cytometry on HEK-293T cells expressing the mutant clone, 4320 Fab 0.50 ug/mL, normalised to WT CD138; Range %WT Binding 14; Normalized 4320 vs. BB4 53.5
T1 construct: clone of the alanine scanning library on HEK-293T cells; m17 with one substitution; also called CD138 G241A
T1 sequence (CD138 (SDC1), full length, point mutant, looked up): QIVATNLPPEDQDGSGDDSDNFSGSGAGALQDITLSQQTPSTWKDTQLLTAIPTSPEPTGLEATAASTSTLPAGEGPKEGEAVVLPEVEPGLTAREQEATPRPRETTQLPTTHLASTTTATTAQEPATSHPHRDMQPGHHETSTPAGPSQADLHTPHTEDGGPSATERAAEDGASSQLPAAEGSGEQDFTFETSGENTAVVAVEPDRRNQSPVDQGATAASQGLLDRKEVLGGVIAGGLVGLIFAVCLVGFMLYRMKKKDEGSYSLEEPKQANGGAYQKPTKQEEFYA
Procedure: (§1) Serial dilutions of each MAb were tested for immunoreactivity against cells expressing target protein (WT) or vector alone. Validation of target expression and optimization of detection and binding of anti-CD138 antibodies both by flow cytometry was completed in replicate (N=4). The optimal screening concentration for each MAb was determined based on the raw signal values and signal-to-background calculations specifically optimized for each test article. Optimized parameters included the use of 10% goat serum as blocking reagent. Primary antibody staining was for 60 minutes at 25° C. Wash buffer include phosphate buffered saline (divalent metal ion free), pH 7.4. […] Secondary antibodies were diluted 1:400 and incubated for 30 minutes at 25° C.
(§2) Library screens of very-high-affinity mAbs can fail to yield critical residues for antibody binding due to deficiencies of such an assay to detect and differentiate critical vs. less critical binding based on affinity and quantification of cell binding. One common approach in the literature is the use of monovalent antibody derived fragments such as Fab usually weakens binding sufficiently to allow identification of critical residues for binding. […] Binding of each test Ab to each mutant clone in the alanine scanning library was determined, in duplicate, and likewise evaluated by flow cytometry.

[2] = biological target: T2, D210A (Homo sapiens, UniProt P18827); experiment: alanine scan: flow cytometry on HEK-293T cells expressing the mutant clone, 4320 Fab 0.50 ug/mL, normalised to WT CD138; Range %WT Binding 15; Normalized 4320 vs. BB4 56.7
T2 construct: clone of the alanine scanning library on HEK-293T cells; m17 with one substitution; also called CD138 D210A
T2 sequence (CD138 (SDC1), full length, point mutant, looked up): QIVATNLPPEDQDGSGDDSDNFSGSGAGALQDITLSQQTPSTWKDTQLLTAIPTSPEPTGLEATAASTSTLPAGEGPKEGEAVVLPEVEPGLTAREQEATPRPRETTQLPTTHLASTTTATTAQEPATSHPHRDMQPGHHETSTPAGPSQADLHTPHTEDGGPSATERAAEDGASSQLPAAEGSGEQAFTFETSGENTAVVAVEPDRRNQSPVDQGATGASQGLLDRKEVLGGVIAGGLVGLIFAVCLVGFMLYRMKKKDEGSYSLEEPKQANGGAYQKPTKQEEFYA
Procedure: as §1, §2

[3] = biological target: T3, T188A (Homo sapiens, UniProt P18827); experiment: alanine scan: flow cytometry on HEK-293T cells expressing the mutant clone, 4320 Fab 0.50 ug/mL, normalised to WT CD138; Range %WT Binding 29; Normalized 4320 vs. BB4 59.8
T3 construct: clone of the alanine scanning library on HEK-293T cells; m17 with one substitution; also called CD138 T188A
T3 sequence (CD138 (SDC1), full length, point mutant, looked up): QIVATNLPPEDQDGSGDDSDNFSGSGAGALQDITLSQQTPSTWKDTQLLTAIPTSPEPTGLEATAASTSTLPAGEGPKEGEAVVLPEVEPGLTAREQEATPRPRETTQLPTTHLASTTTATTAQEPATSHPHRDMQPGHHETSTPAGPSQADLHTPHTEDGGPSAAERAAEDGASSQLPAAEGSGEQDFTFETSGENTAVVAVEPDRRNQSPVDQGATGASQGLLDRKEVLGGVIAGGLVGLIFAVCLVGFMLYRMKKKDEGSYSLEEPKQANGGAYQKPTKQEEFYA
Procedure: as §1, §2

[4] = biological target: T4, T143A (Homo sapiens, UniProt P18827); experiment: alanine scan: flow cytometry on HEK-293T cells expressing the mutant clone, 4320 Fab 0.50 ug/mL, normalised to WT CD138; Range %WT Binding 6; Normalized 4320 vs. BB4 53.2
T4 construct: clone of the alanine scanning library on HEK-293T cells; m17 with one substitution; also called CD138 T143A
T4 sequence (CD138 (SDC1), full length, point mutant, looked up): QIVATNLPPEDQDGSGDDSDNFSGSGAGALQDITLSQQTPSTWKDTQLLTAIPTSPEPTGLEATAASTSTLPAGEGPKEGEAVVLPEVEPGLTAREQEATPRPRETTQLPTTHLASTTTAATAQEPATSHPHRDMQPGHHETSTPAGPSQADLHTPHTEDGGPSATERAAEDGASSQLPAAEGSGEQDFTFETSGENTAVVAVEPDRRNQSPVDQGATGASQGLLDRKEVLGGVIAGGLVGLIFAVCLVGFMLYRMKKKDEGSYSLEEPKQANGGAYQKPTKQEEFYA
Procedure: as §1, §2

[5] = biological target: S151A (Homo sapiens) (UniProt P18827); experiment: alanine scan: flow cytometry on HEK-293T cells expressing the mutant clone, 4320 Fab 0.50 ug/mL, normalised to WT CD138; Range %WT Binding 6; Normalized 4320 vs. BB4 24.5
[6] = biological target: T5, G184A (Homo sapiens, UniProt P18827); experiment: alanine scan: flow cytometry on HEK-293T cells expressing the mutant clone, 4320 Fab 0.50 ug/mL, normalised to WT CD138; Range %WT Binding 17; Normalized 4320 vs. BB4 60.6
T5 construct: clone of the alanine scanning library on HEK-293T cells; m17 with one substitution; also called CD138 G184A
T5 sequence (CD138 (SDC1), full length, point mutant, looked up): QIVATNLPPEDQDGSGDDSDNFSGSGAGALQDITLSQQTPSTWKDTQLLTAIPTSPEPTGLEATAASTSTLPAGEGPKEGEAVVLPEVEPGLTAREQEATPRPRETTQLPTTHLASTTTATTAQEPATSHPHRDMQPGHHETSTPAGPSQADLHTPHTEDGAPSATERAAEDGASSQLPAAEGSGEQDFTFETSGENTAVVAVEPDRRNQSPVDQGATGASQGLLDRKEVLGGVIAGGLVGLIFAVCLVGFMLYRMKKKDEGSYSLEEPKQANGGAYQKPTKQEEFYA
Procedure: as §1, §2

B1: Fab fragment of mAb 4320 (Fab, V domains shown)
VH: QVQLVQSGAEVKKPGASVKVSCKASGYSFSSYYMHWVRQAPGQGLEWMGTIHPSDSTTNYNQKFQGRVTMTVDTSTRTAYMELSSLRSEDTAVYYCANFVYWGQGTTVTVSS
VL: DIVMTQTPLSLSVTPGQPASISCKSSKSLLYKDGKTYLNWFLQKPGQSPQLLIYVVSTRASGVPDRFSGSGSGTDFTLKISRVEAEDVGVYYCQQLVEYPYTFGQGTKLEIKR
modifications: N-terminal Q1 observed as pyroglutamic acid (PCA) in the 138-2-5 complex
notes: In the crystal structures heavy chain residues 1-213 were traced; also called Fab4320
[1]
  Mean %WT Binding: 53.5 %WT
[2]
  Mean %WT Binding: 42.7 %WT
[3]
  Mean %WT Binding: 57.4 %WT
[4]
  Mean %WT Binding: 30.8 %WT
[5]
  Mean %WT Binding: 8.9 %WT
[6]
  Mean %WT Binding: 60.1 %WT
